This passage reports Ki results from patent US20240000957A1 (published 2024).

The assay deals with T1, Human EphA2 (Ecto), C-terminal polyHis (Human, UniProt P29317 24-537).
T1 construct: extracellular domain; R&D systems 3035-A2 or in-house
The experiment in a line: FP competition vs Reference Compound C.

*1 amine or outer side, *2 acyl side, *3 side chain or, on linkers, in order; H or OH if unused. Bridges are numbered along the chain shown (N, C = ends). Where no end group is shown, it is not given here. [ ]: non-standard residue; d: D form. TATA = O=C(CC[*:1])N1CN(C(=O)CC[*:2])CN(C(=O)CC[*:3])C1; 2Nal = N[C@@H](Cc1ccc2ccccc2c1)C(=O)O; βAla = NCCC(=O)O; Sar = CNCC(=O)O

T1 sequence (P29317 24-537): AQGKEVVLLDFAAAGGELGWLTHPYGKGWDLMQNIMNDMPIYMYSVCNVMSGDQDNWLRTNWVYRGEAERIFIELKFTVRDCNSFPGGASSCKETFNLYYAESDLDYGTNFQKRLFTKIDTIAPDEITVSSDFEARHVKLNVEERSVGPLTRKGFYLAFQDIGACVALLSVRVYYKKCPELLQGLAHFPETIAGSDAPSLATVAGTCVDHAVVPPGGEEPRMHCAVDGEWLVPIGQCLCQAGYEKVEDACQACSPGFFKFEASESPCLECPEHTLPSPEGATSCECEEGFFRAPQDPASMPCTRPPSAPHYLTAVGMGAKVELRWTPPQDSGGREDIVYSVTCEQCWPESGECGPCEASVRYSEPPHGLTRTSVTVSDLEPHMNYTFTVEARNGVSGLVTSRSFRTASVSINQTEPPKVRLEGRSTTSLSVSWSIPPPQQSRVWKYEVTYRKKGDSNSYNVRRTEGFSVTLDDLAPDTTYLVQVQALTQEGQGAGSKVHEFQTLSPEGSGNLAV

ACSSCWAYPDSVCA (linker 2-5-13 via TATA; not fully specified (C-terminus)) [Compound 38] gave a Ki of 400 nM.
In the case of ACGFMGLEPCVTYCA (linker 2-10-14 via TATA; not fully specified (C-terminus)) [Compound 43] it was 234 nM.

B1: Compound 88 (peptide)
peptide: Ac-CPLVNPLCLHPGWSCRGQ
modifications: linker 1-8-15 via TATA; not fully specified (C-terminus); printed as Ac-CPLVNPLCLHPGWSCRGQ
For B1, the Ki came out at 1.64 nM.
The molecule TPRCPLVNPLCLMPGWTCA (linker 4-11-18 via TATA; not fully specified (C-terminus)) [Compound 81] yielded a Ki of 9.8 nM.
ACGFMGLEPCELFCMPK (linker 2-10-14 via TATA; not fully specified (C-terminus)) [Compound 47] returned a Ki of 185 nM.
The molecule GSGCKPDSRCAYMNVCA (linker 4-10-16 via TATA; not fully specified (C-terminus)) [Compound 22] returned a Ki of 63.2 nM.
Take ACRNWGMYCAYPDTICA (linker 2-9-16 via TATA; not fully specified (C-terminus)) [Compound 35]: the Ki is 282 nM.
In the case of ACVPDRRCAFENVCVDH (linker 2-8-14 via TATA; not fully specified (C-terminus)) [Compound 25], the Ki was 97.3 nM.
ACGFMGLVPCNVFCA (linker 2-10-14 via TATA; not fully specified (C-terminus)) [Compound 45] displayed a Ki of 142 nM.
ACMNDWWCAMGWKCA (linker 2-8-14 via TATA) [Compound 15]: the affinity corresponds to a Ki of 278 nM.
Turning to ACQSCWAYPDTYCA (linker 2-5-13 via TATA; not fully specified (C-terminus)) [Compound 39], the affinity corresponds to a Ki of 321 nM.
Molecule SRPCVIDSRCAYMNVCA (linker 4-10-16 via TATA) [Compound 19] showed a Ki of 94.8 nM.
ACVPDRRCAFMNVCEDR (linker 2-8-14 via TATA; not fully specified (C-terminus)) [Compound 26] gave a Ki of 39 nM.
The figure for ESRCSPDARCAYMNVCA (linker 4-10-16 via TATA) [Compound 20] is 57 nM; for HSGCRPDPRCAYMNVCA (linker 4-10-16 via TATA) [Compound 21] it is 62.1 nM.
Molecule ACGFMGLEPCELFCA (linker 2-10-14 via TATA; not fully specified (C-terminus)) [Compound 46] gave a Ki of 81.7 nM.
The figure for ACGFMGLEPCEMVCA (linker 2-10-14 via TATA; not fully specified (C-terminus)) [Compound 42] is 320 nM.
Molecule ACGFMGLEPCETFCA (linker 2-10-14 via TATA; not fully specified (C-terminus)) [Compound 40] gave a Ki of 188 nM.
In the case of ACGFMGLEPCEMYCA (linker 2-10-14 via TATA; not fully specified (C-terminus)) [Compound 50] it was 140 nM; in that of ACGFMGLEPCELVCA (linker 2-10-14 via TATA; not fully specified (C-terminus)) [Compound 44], 127 nM.
In the case of ACPLVNPLCLHPGWTCA (linker 2-9-16 via TATA; not fully specified (C-terminus)) [Compound 64] it was 30 nM; in that of ACPLVNPLCLHPGWRCA (linker 2-9-16 via TATA; not fully specified (C-terminus)) [Compound 55], 20.6 nM; in that of ACPMVNPLCLHPGWTCA (linker 2-9-16 via TATA) [Compound 97], 20 nM.
For ACPMVNPLCLHPGWICA (linker 2-9-16 via TATA; not fully specified (C-terminus)) [Compound 53], the Ki came out at 15.4 nM.
The molecule ACPLVNPLCLVPGWSCA (linker 2-9-16 via TATA; not fully specified (C-terminus)) [Compound 57] yielded a Ki of 35.4 nM.
As to ACPLVNPLCLHPGWICA (linker 2-9-16 via TATA; not fully specified (C-terminus)) [Compound 54], the affinity corresponds to a Ki of 15.2 nM.
Consider ACPLVNPLCLAPGWTCA (linker 2-9-16 via TATA; not fully specified (C-terminus)) [Compound 82], for which affinity was put at a Ki of 46.2 nM.
ACPLVNPLCLEPGWTCA (linker 2-9-16 via TATA; not fully specified (C-terminus)) [Compound 84] returned an inhibitory constant (Ki) of 53.9 nM.
In turn, ACPLVNPLCLHPGWSCA (linker 2-9-16 via TATA; not fully specified (C-terminus)) [Compound 86] had a Ki of 56.1 nM.
The figure for ACRGEWGYCAYPDTICA (linker 2-9-16 via TATA; not fully specified (C-terminus)) [Compound 34] is 348 nM; for ACPLVNPLCLTPGWTCTNT (linker 2-9-16 via TATA; not fully specified (C-terminus)) [Compound 94] it is 13.2 nM.

B2: Compound 17 (peptide)
peptide: [βAla][Sar][Sar][Sar][Sar][Sar][Sar][Sar][Sar][Sar][Sar]ACVPDRRCAYMNVC
modifications: linker 13-19-25 via TATA; not fully specified (C-terminus); printed as (β-Ala)-Sar10-ACVPDRRCAYMNVC
Molecule B2 gave a Ki of 85 nM.
Take DLRCGGDPRCAYMNVCA (linker 4-10-16 via TATA) [Compound 18]: the Ki worked out at 70.8 nM.
Molecule ACGFMGLEPCELYCAHT (linker 2-10-14 via TATA; not fully specified (C-terminus)) [Compound 49] yielded an inhibitory constant (Ki) of 144 nM.
The figure for ACVPDRRCAFQDVCDHE (linker 2-8-14 via TATA; not fully specified (C-terminus)) [Compound 27] is 159 nM.
Turning to ACPLVNPLCLEPGWTCAKR (linker 2-9-16 via TATA; not fully specified (C-terminus)) [Compound 85], the affinity corresponds to a Ki of 10.9 nM.
ETVCLPDSRCAYMNVCA (linker 4-10-16 via TATA; not fully specified (C-terminus)) [Compound 23] had a Ki of 130 nM.
The figure for ACTKPTGFCAYPDTICA (linker 2-9-16 via TATA; not fully specified (C-terminus)) [Compound 33] is 268 nM; for ACVPDRRCAYMNVCA (linker 2-8-14 via TATA) [Compound 16] it is 70 nM.
On to ACVPDRRCAFRDVCLTG (linker 2-8-14 via TATA; not fully specified (C-terminus)) [Compound 28], for which the affinity, expressed as Ki, was 1700 nM.

B3: Compound 93 (peptide)
peptide: ACPLVNPLCLHPG[2Nal]SCRGQ
modifications: linker 2-9-16 via TATA; not fully specified (C-terminus); printed as ACPLVNPLCLHPG(2Nal)SCRGQ
B3 gave a Ki of 228 nM.
In turn, ACPDWGKYCAYPDTICA (linker 2-9-16 via TATA; not fully specified (C-terminus)) [Compound 36] returned a Ki of 160 nM.
Take ACGFMGLVPCEVHCA (linker 2-10-14 via TATA; not fully specified (C-terminus)) [Compound 41]: the affinity corresponds to a Ki of 155 nM.

A word on the Ki: it is the dissociation constant of the complex between target and ligand, obtained from inhibition or displacement.
